Laboratory results: patent US20090010876A1, “VISFATIN AND USES THEREOF” (THE TRUSTEES OF COLUMBIA UNIVERSITY IN THE CITY OF NEW YORK, priority 2007, published 2009)

What was measured:
[1] = tested on: macrophages; assay: ER stress-mediated macrophage apoptosis, Alexa-488 annexin V staining; type: cell-based; conditions: pre-incubated with visfatin 24 h (FIG. 1A prints 1100 ng/ml, FIG. 1D ±100 ng/ml), then acetyl-LDL + 58035 (FC) 20 h or tunicamycin + fucoidan 24 h
Procedure: FIG. 1. […] FIG. 1A. Macrophages were pre-incubated 1100 ng/ml visfatin (vis) for 24 h and then incubated with 50 μg/ml acetyl-LDL+10 μg/ml 58035 (FC) for 20 h. Apoptosis was assayed by Alexa-488 annexin V staining (green). One representative image per condition was shown. FIG. 1B. The percentage of apoptosis was quantified (mean±SEM, n=8). FIG. 1C. Macrophages incubated in medium (con) or with visfatin (vis) for 24 h. Whole cell lysates were immunoblotted for the insulin receptor β (IRβ), SR-A, CD36 and β-actin. FIG. 1D. Macrophages were pre-incubated ±100 ng/ml visfatin (vis) for 24 h and then incubated with 5 μg/ml tunicamycin +25 μg/ml fucoidan (TN/F) for 24 h. Apoptosis was assayed and quantified as described in FIG. 1A and FIG. 1B.

[2] = tested on: unfolded protein response (UPR); assay: Immunoblot of UPR markers in ER-stressed macrophages; type: cell-based; conditions: for distal UPR effectors / distal UPR activation (CHOP, ATF3, XBP-1, ATF4): visfatin 24 h pre-incubation, then FC, 5 μM thapsigargin or 5 μg/ml tunicamycin 5 h, immunoblot
Procedure: FIG. 2. […] FIG. 2A. Macrophages were preincubated 1100 ng/ml visfatin (vis) for 24 h and then incubated with FC, 5 μM thapsigargin (TG), or 5 μg/ml tunicamycin (TN) for 5 h. Whole cell lysates were immunoblotted for CHOP, ATF3, and β-actin. FIG. 2B. Macrophages were pre-incubated ±100 ng/ml visfatin for 24 h and then incubated with 5 μg/ml TN for 5 h. The nuclear extracts were immunoblotted for XBP-1, ATF4, and nucleophosmin (loading control). FIG. 2C. Nuclei-free cell extracts from the above experiment were immunoblotted with antibodies against PERK, IRE1α, phospho-eIf2α, and β-actin.

[3] = tested on: ATF4; assay: ATF4 mRNA by RT-QPCR in FC-loaded macrophages; type: cell-based; conditions: visfatin 24 h pre-incubation, then acetyl-LDL + 58035 (FC); normalized with 36B4
Procedure: (§1) FIG. 3. […] FIG. 3A. Macrophages were preincubated ±1100 ng/ml visfatin (v) for 24 h and then incubated with 50 μg/ml acetyl-LDL+10 μg/ml 58035 (FC) for indicated times. Total RNA was extracted and subjected to RT-QPCR. The mRNA level of ATF4 was normalized with a control gene 36B4. FIG. 3B. Macrophages were pre-incubated for 24 h±100 ng/ml visfatin (vis) and then incubated for 5 h+5 μg/ml tunicamycin (TN). The cells were pulsed with [35S]methionine/cysteine in methionine-free medium for 15 min and then lysed in RIPA buffer. ATF4 was immunoprecipitated using a rabbit antibody immobilized to protein A/G beads. A normal rabbit IgG served as control. The immunoprecipitate was subjected to SDS-PAGE and autoradiography.

[4] = tested on: ATF4; assay: ATF4 protein synthesis, [35S]methionine/cysteine pulse and immunoprecipitation; type: cell-based; conditions: ±100 ng/ml visfatin 24 h, then 5 μg/ml tunicamycin 5 h, 15 min pulse
Procedure: as §1

[5] = tested on: insulin receptor; assay: CHOP immunoblot in macrophages from insulin receptor deficient and wild type mice; type: cell-based; conditions: IR−/− vs wt macrophages, ±100 ng/ml visfatin 24 h, then 5 μg/ml tunicamycin 5 h
Description: FIG. 4. […] Whole cell lysates were immunoblotted for CHOP and β-actin.

[6] = tested on: macrophages in mouse peritoneal cavity; assay: Acute UPR induction in mouse peritoneal macrophages in vivo, CHOP immunoblot; parameters: species or system Male C57/B6 mice; conditions: i.v. 5 mg recombinant visfatin, 24 h later i.p. 25 μg tunicamycin, harvest 12 h after, CHOP normalized against phospho-eIf2α
Procedure: FIG. 5. […] FIG. 5A. Male C57/B6 mice were subjected to intra-peritoneal (i.p.) injection of 1 ml of 4% thioglycolate to elicit peritoneal macrophages. Three days later, the mice were injected i.v. with 0.1 ml sterile saline ±5 mg recombinant visfatin (vis). Twenty-four hours later, these mice were injected i.p. with 0.5 ml 150 mM dextrose ±25 μg tunicamycin (TN). Twelve hours after TN injection, macrophages were harvested by peritoneal lavage and immediately lysed in RIPA buffer. The lysates were subjected to SDS-PAGE and immunoblotting for CHOP, phospho-eIf2α and β-actin. FIG. 5B. The intensity of CHOP bands were quantified and normalized against that of phospho-eIf2α.

[7] = tested on: atherosclerotic plaque formation; assay: Atherosclerotic plaque formation in susceptible mice on high cholesterol diet; type: in vivo; conditions: vs diluent alone, mice with reduced ApoE1 expression
Description: Recombinant visfatin polypeptides will be injected into mice susceptible to atherosclerotic plaque formation. In accordance with this prophetic example, the genome of these mice can comprise a transgenic modification wherein ApoE1 gene expression is reduced to levels that promote atherosclerosis. The mice will be continuously fed a high cholesterol diet to promote the formation of atherosclerotic lesions. One group of mice will be administered a pharmaceutically effective amount of visfatin polypeptide in a suitable diluent and another group of mice will be administered diluent alone and the incidence of atherosclerotic plaque formation will be compared between the two groups. The amount of visfatin polypeptide, the length of administration and the frequency of administration are variables that can readily be determine by an individual skilled in the art.

[8] = tested on: macrophages in atherosclerotic plaques; assay: Macrophage death in atherosclerotic plaques of susceptible mice; type: in vivo; conditions: vs diluent alone; mice with reduced ApoE1 expression, high cholesterol diet
Description: Recombinant visfatin polypeptides will be injected into mice susceptible to atherosclerotic plaque formation. In accordance with this prophetic example, the genome of these mice can comprise a transgenic modification wherein ApoE1 gene expression is reduced to levels that promote atherosclerosis. The mice will be continuously fed a high cholesterol diet to promote the formation of atherosclerotic lesions. One group of mice will be administered a pharmaceutically effective amount of visfatin polypeptide in a suitable diluent and another group of mice will be administered diluent alone and the amount of macrophage death in atherosclerotic plaques will be compared between the two groups. The amount of visfatin polypeptide, the length of administration and the frequency of administration are variables that can readily be determine by an individual skilled in the art.

[9] = tested on: ER stress related disease; assay: ER-stress related disease in susceptible mice; type: in vivo; conditions: vs diluent alone; mice susceptible to an ER-stress related disease

B1: visfatin: adipokine protein, having a molecular weight of about 52,000 daltons; polypeptide having SEQ ID NO:1 (protein, listed as Homo sapiens)
chain: MNPAAEAEFNILLATDSYKVTHYKQYPPNTSKVYSYFECREKKTENSKLRKVKYEETVFYGLQYILNKYLKGKVVTKEKIQEAKDVYKEHFQDDVFNEKGWNYILEKYDGHLPIEIKAVPEGFVIPRGNVLFTVENTDPECYWLTNWIETILVQSWYPITVATNSREQKKILAKYLLETSGNLDGLEYKLHDFGYRGVSSQETAGIGASAHLVNFKGTDTVAGLALIKKYYGTKDPVPGYSVPAAEHSTITAWGKDHEKDAFEHIVTQFSSVPVSVVSDSYDIYNACEKIWGEDLRHLIVSRSTQAPLIIRPDSGNPLDTVLKVLEILGKKFPVTENSKGYKLLPPYLRVIQGDGVDINTLQEVCVLY
With B1 the “ER-stress mediated apoptosis of macrophages” value [1] was “protects macrophages from ER-stress mediated apoptosis”, the “ER-stress mediated apoptosis of macrophages” value ([1]; listed as Visfatin) was “protects macrophages from ER stress-mediated apoptosis” and the “distal UPR effectors / distal UPR activation (CHOP, ATF3, XBP-1, ATF4)” value [2] was “directly targets distal UPR effectors”. For the same molecule, the “distal UPR effectors / distal UPR activation (CHOP, ATF3, XBP-1, ATF4)” value ([2]; listed as Visfatin) was “suppresses the distal UPR activation”, the “upstream UPR activators (PERK, IRE1α, phospho-eIf2α)” value ([2]; ±100 ng/ml visfatin 24 h, then 5 μg/ml tunicamycin 5 h, nuclei-free cell extracts) was “without inhibiting upstream UPR activators” and the “mRNA level of ATF4” value [3] was “intact”. The “translation of ATF4 / ATF4 protein synthesis” value [4] was “halted”, the “translation of ATF4 / ATF4 protein synthesis” value ([4]; listed as Visfatin) was “suppresses ATF4 protein synthesis” and the “UPR-suppressing effect, dependence on the insulin receptor” value [5] was “independent of the insulin receptor”. For the same molecule, the “acute UPR induction in macrophages of the mouse peritoneal cavity” value ([6]; listed as Recombinant visfatin) was “suppresses the acute UPR induction of macrophages in mouse peritoneal cavity”, the “acute UPR induction in macrophages of the mouse peritoneal cavity” value ([6]; listed as recombinant visfatin) was “suppress acute UPR induction in macrophages of the mouse peritoneal cavity” and the “incidence of atherosclerotic plaque formation” value [7] was “lower incidence of atherosclerotic plaque formation”. For the same molecule, the “amount of macrophage death in atherosclerotic plaques” value [8] was “lower amount of cell death” and the “incidence of the ER stress related disease” value [9] was “lower incidence of the ER stress related disease”.
